US20120141476A1 (MacroGenics, published 2012)

Columns and labels:
[1] = biological target: T1, FcγRIIB (CD32B) on Daudi cells (human, UniProt P31994 43-310); test: FACS on Daudi cells, antibody at 0.1 µg/ml
T1 construct: whole, on cells; also called this human B cell tumor line
T1 sequence (looked up): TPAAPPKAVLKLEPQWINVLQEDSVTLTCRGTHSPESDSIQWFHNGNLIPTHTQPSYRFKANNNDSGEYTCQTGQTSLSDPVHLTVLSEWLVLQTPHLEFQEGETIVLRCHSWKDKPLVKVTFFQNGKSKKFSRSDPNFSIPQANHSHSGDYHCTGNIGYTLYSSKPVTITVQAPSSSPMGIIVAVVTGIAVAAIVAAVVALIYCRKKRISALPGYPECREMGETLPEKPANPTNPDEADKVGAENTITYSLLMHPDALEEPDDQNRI
Description: (§1) Protocol for FACS analysis. Approximately 10⁶ Daudi cells were used for each antibody staining Cells were washed once with PBS. Primary antibodies (Ch2B6, Hu2B6Hc/ch2B6Lc, human IgG1 ) were diluted into 0.5, 0.1, 0.02 μg/mL in PBS/1% BSA and 100 μL of diluted antibodies was transferred to the cells. After 30 mins incubation at 4° C., cells were washed once with 1 mL PBS/1% BSA. PE conjugated F(ab′)₂ fragment of goat anti human IgG Fc specific (Jackson ImmunoReseach, Inc.) was used as secondary antibody at 1:1000 dilution. After 30 mins incubation at 4° C., cells were washed once with 1 mL PBS/1% BSA. The cells were then resuspended in 500 μL of PBS/1% BSA and subjected to be FACS analysis.
(§2) Transfections of HEK-293 cells were performed using the following combinations: hu2B6HC/hu2B6LC; hu2B6HC/hu2B6LC(N50Y); hu2B6HC/hu2B6LC(N50Y,V51A); ch2B6HC/ch2B6LC. After three days in culture the amount of human IgG expressed was quantitated by an ELISA assay, using the method described above. Binding to dimeric soluble FcγRIIb-Fc was determined by ELISA assay. […] FACS analysis was then performed to measure the binding of the mAbs to Daudi cells (Table 8).

[2] = biological target: T1, FcγRIIB (CD32B) on Daudi cells; test: FACS on Daudi cells, antibody at 0.5 µg/ml
Description: as §1, §2

[3] = biological target: T1, FcγRIIB (CD32B) on Daudi cells; test: FACS on Daudi cells, antibody at 0.02 µg/ml
Description: as §1, §2

[4] = biological target: T2, dimeric soluble FcγRIIa-Fc (UniProt P12318 34-217); test: ELISA, 100 ng/well soluble FcγIIA coated
T2 construct: also called soluble FcγIIA; FcγIIA
T2 sequence (looked up): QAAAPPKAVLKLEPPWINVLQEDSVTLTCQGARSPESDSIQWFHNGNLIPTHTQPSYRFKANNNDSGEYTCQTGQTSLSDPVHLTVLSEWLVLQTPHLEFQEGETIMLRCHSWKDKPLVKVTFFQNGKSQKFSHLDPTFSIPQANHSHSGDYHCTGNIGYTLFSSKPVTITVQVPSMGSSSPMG
Description: Protocal for ELISA assay: 100 ng/well of soluble FcγIIA in carbonate buffer was coated on 96-well Maxisorp plates at 4° C. overnight. A serial of two-fold dilution of conditioned medium of Ch2B6; hu2B6HC/hu2B6LC; hu2B6HC/hu2B6LC(N50Y); hu2B6HC/hu2B6LC(N50Y,V51A); and purified IV.3 starting from 25 ng/well was added to the each well. The plate was incubated at room temperature for 1 hour. The binding was detected by HRP conjugated F(ab′)2 goat anti human IgG F(ab′)2 specific secondary antibody for Ch2B6 and all hu2B6 samples and HRP conjugated F(ab′)2 goat anti mouse IgG (H+L) secondary antibody for IV.3. After incubation with the secondary antibody for approximately 45 minutes, the plate was developed using a TMB substrate. After 5 mins incubation, the reaction was stopped by 1% H₂SO₄. The OD₄₅₀ nm was ready by SOFTmax program. Between each step, the plates were washed 3 times with PBS/0.1% Tween 20. The plates were blocked by 0.5% BSA in PBS/0.1% Tween 20 for 30 mins at room temperature before adding the serial diluted antibodies.

Row | Binder | Mean Fluorescence [1] | Mean Fluorescence [2] | Mean Fluorescence [3] | binding result [4]
1 | ch2B6HC/ch2B6LC mAb (chimeric 2B6) (antibody, V domains shown, Tested as conditioned medium of transfected HEK-293 cells; also called ch2B6 mAb; chimeric mAb) VH: QVQLQQPVTELVRPGASVMLSCKASDYPFTNYWIHWVKQRPGQGLEWIGVIDPSDTYPNYNKKFKGKATLTVVVSSSTAYMQLSSLTSDDSAVYYCARNGDSDYYSGMDYWGQGTSVTVSS VL: DILLTQSPAILSVSPGERVSFSCRTSQSIGTNIHWYQQRTNGFPRLLIKNVSESISGIPSRFSGSGSGTDFILSINSVESEDIADYYCQQSNTWPFTFGGGTKLEIK | 141 | 193 | 45.6 | –
2 | hu2B6HC/hu2B6LC(N50Y) (antibody, V domains shown, Human C-Gamma1 and C-kappa constant regions; also called Hu2B6N50Y; Hu2B6 N50Y) VH: QVQLVQSGAEVKKPGASVKVSCKASGYTFTNYWIHWVRQAPGQGLEWMGVIDPSDTYPNYNKKFKGRVTMTTDTSTSTAYMELRSLRSDDTAVYYCARNGDSDYYSGMDYWGQGTTVTVSS VL: EIVLTQSPDFQSVTPKEKVTITCRTSQSIGTNIHWYQQKPDQSPKLLIKYVSESISGVPSRFSGSGSGTDFTLTINSLEAEDAATYYCQQSNTWPFTFGGGTKVEIK | – | – | – | no binding
3 | hu2B6HC/hu2B6LC mAb (humanized 2B6) (antibody, V domains shown, Human C-Gamma1 and C-kappa constant regions) VH: QVQLVQSGAEVKKPGASVKVSCKASGYTFTNYWIHWVRQAPGQGLEWMGVIDPSDTYPNYNKKFKGRVTMTTDTSTSTAYMELRSLRSDDTAVYYCARNGDSDYYSGMDYWGQGTTVTVSS VL: EIVLTQSPDFQSVTPKEKVTITCRTSQSIGTNIHWYQQKPDQSPKLLIKNVSESISGVPSRFSGSGSGTDFTLTINSLEAEDAATYYCQQSNTWPFTFGGGTKVEIK | – | – | – | no binding
4 | hu2B6HC/hu2B6LC(N50Y,V51A) (antibody, V domains shown, Human C-Gamma1 and C-kappa constant regions; also called Hu2B6N50Y,V51A; Hu2B6N50Y, V51A) VH: QVQLVQSGAEVKKPGASVKVSCKASGYTFTNYWIHWVRQAPGQGLEWMGVIDPSDTYPNYNKKFKGRVTMTTDTSTSTAYMELRSLRSDDTAVYYCARNGDSDYYSGMDYWGQGTTVTVSS VL: EIVLTQSPDFQSVTPKEKVTITCRTSQSIGTNIHWYQQKPDQSPKLLIKYASESISGVPSRFSGSGSGTDFTLTINSLEAEDAATYYCQQSNTWPFTFGGGTKVEIK | – | – | – | no binding
